Patent publication US10011657B2, “Anti-CS1 antibodies and antibody drug conjugates” (AbbVie Biotherapeutics Inc., priority 2014, dated 2018)

Legend:
OPM-2 xenografts = OPM-2 xenografts in effector-cell-negative NSG mice; type: in vivo
Method: (§1) OPM-2 xenografts were prepared and conducted as previously described. NSG mice (NOD.Cg-Prkdcscid Il2rgtm1Wj1/SzJ) from The Jackson Laboratory (strain code 05557) were used. This strain lacks effector cells and eliminates the ADCC mechanism for all antibodies. AB095, an antibody that targets tetanus toxoid, was run as control. Dosing of test ADCs was normalized such that equal masses of the PBD component were delivered.
as §1, with “toxoid” for “toxoid,”, “SN38” for “PBD”
The combination of Hu34C3-MMAE E2 plus carfilzomib inhibited tumor growth (TGImax 43% (FIG. 26A) and TGImax 59% (FIG. 26B)) at similar levels to Hu34C3-MMAE E2 alone.
Efficacy of Hu34C3-MMAE E2 in combination with pomalidomide ((also known as 4-Amino-2-(2,6-dioxopiperidin-3-yl)isoindole-1,3-dione; marketed under the tradename POMALYST by Celgene Corporation, Summit, N.J. 07901) and/or dexamethasone ((also known as 8S,9R,10S,11S,13S,14S,16R,17R)-9-fluoro-11,17-dihydroxy-17-(2-hydroxyacetyl)-10,13,16-trimethyl-6,7,8,9,10,11,12,13,14,15,16,17-dodecahydro-3H-cyclopenta[a]phenanthren-3-one) was determined in subcutaneous xenografts of OPM-2 cells (van Rhee et al., 2009 Mol. Cancer Therapeutics 8: 2616-24). Effector-cell-negative mice were used (NSG strain) in this experiment. Vehicle (PBS/DMSO) was run as a control. ADCs were dosed at 3 or 6 mg/kg i.p.; pomalidomide was dosed at 20 mg/kg i.p. and dexamethasone was dosed at 10 mg/kg i.p.
Efficacy of Hu34C3-MMAE E2 was determined in subcutaneous xenografts of OPM-2 cells (van Rhee et al., 2009 Mol. Cancer Therapeutics 8: 2616-24). These xenografts were treated with bortezomib twice a week for two weeks. […] These tumors were re-randomized and either continued with bortezomib treatment or were switched to lenalidomide plus dexamethasone, pomalidomide, Hu34C3-MMAE E2, or Hu34C3-MMAE E2 plus pomalidomide treatments.

[1] = tested on: relapsed or refractory multiple myeloma; details: elotuzumab added to lenalidomide and dexamethasone vs lenalidomide and dexamethasone control group; cited from earlier work
HuCS1 = biological target: T1, HuCS1 (Homo sapiens, UniProt Q9NQ25); test: Flow-cytometry competition assay with AF488-labeled Luc34.3.8 on L-363 cells; type: binding; details: 20 μg/mL test antibody, 2 μg/mL labeled Luc34.3.8
T1 construct: L-363 cells (human multiple myeloma cell line) expressing HuCS1; endogenous in cells; host or cells: L-363 human multiple myeloma cell line
Method: A similar experiment was conducted with AF488-labeled Luc34.3.8 at 2 μg/mL. L-363 cells (human multiple myeloma cell line) expressing HuCS1 (300,000 cells per data point) was incubated for 30 min (on ice) with a tenfold excess of unlabeled test antibody (20 μg/mL). After the incubation, 2 μg/mL of AF488-labeled Luc34.3.8 was added to the cells and incubated on ice for 30 minutes. After this incubation, the cells were washed with PBS+1% FBS, and binding of AF488-labeled […] determined by flow cytometry.

human CS1 [2] = biological target: T2, human CS1 (Homo sapiens, UniProt Q9NQ25); test: Flow-cytometry competition assay with AF488-labeled PDL241 (humanized antibodies, Example 5); type: binding; details: 293s cells transfected with human CS1; 50 μg/mL test antibody, 5 μg/mL labeled PDL241
T2 construct: expressed in transfected cells; host or cells: 293s cells
Method: 293s cells transfected with human CS1 were incubated at various concentrations with an AF488 labeled PDL241 antibody. […] Transfected 293s cells (300,000 cells per data point) were incubated for 30 min (on ice) with a tenfold excess of unlabeled test antibody (50 μg/mL). After the incubation, 5 μg/mL of AF488-labeled PDL241 was added to the cells and incubated on ice for 30 minutes. After this incubation, the cells were washed with PBS+1% FBS and binding of AF488-labeled PDL241 was determine by flow cytometry.

human CS1 [3] = biological target: T2, human CS1; test: Flow-cytometry competition assay with AF488-labeled elotuzumab; type: binding; details: 293s cells transfected with human CS1; 100 μg/mL test antibody, 10 μg/mL labeled elotuzumab
Method: A similar experiment was conducted with AF488-labeled elotuzumab at 10 μg/mL. Transfected 293s cells (300,000 cells per data point) were incubated for 30 min (on ice) with a tenfold excess of unlabeled antibody (100 μg/mL). After the incubation, 10 μg/mL of AF488-labeled elotuzumab was added to the cells and incubated on ice for 30 minutes. After this incubation, the cells were washed with PBS+1% FBS and binding of AF488-labeled elotuzumab determined by flow cytometry.

human CS1 [4] = biological target: T2, human CS1; test: Flow-cytometry competition assay with AF488-labeled Hu34C3; type: binding; details: 293s cells transfected with human CS1; 100 μg/mL test antibody, 10 μg/mL labeled Hu34C3
Method: For the competition assays, transfected 293s cells (300,000 cells per data point) were incubated for 30 min (on ice) with a tenfold excess of unlabeled test antibody (100 μg/mL).

[5] = Example 29, low-dose Hu34C3-MMAE E2 3 mg/kg i.p., pomalidomide 20 mg/kg i.p., dexamethasone 10 mg/kg i.p.

T2 sequence (Q9NQ25 23-335): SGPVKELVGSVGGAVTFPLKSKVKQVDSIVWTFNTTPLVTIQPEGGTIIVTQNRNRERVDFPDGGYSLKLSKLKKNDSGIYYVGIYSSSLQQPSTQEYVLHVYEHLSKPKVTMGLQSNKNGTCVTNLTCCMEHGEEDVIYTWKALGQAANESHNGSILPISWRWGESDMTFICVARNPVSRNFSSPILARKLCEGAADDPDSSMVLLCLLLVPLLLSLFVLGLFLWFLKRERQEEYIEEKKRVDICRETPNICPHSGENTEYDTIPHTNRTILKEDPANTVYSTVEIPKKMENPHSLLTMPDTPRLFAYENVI
T1 sequence (Q9NQ25 23-335): as above

CC(C)C[C@H](NC(=O)[C@H](Cc1ccccc1)NC(=O)c1cnccn1)B(O)O [bortezomib, [(1R)-3-methyl-1-[[(2S)-1-oxo-3-phenyl-2-[(pyrazinylcarbonyl)amino]propyl]amino]butyl]boronic acid]
TGImax (OPM-2 xenografts; Example 27, Hu34C3-MMAE E2 3 mg/kg, bortezomib 1 mg/kg): 58% | TGImax at end of two week treatment (OPM-2 xenografts; Example 31, bortezomib twice a week for two weeks): 66%

CC(C)C[C@H](NC(=O)[C@H](CCc1ccccc1)NC(=O)CN1CCOCC1)C(=O)N[C@@H](Cc1ccccc1)C(=O)N[C@@H](CC(C)C)C(=O)[C@@]1(C)CO1 [carfilzomib, (S)-4-Methyl-N-((S)-1-(((S)-4-methyl-1-((R)-2-methyloxiran-2-yl)-1-oxopentan-2-yl)amino)-1-oxo-3-phenylpropan-2-yl)-2-((S)-2-(2-morpholinoacetamido)-4-phenylbutanamido)pentanamide]
TGImax (OPM-2 xenografts; Example 28, single agents, carfilzomib at 1.5 and 3 mg/kg): < 10%

C[C@@H]1C[C@H]2[C@@H]3CCC4=CC(=O)C=C[C@]4(C)[C@@]3(F)[C@@H](O)C[C@]2(C)[C@@]1(O)C(=O)CO [dexamethasone]
TGImax (OPM-2 xenografts; [5]): 25%

Nc1cccc2c1C(=O)N(C1CCC(=O)NC1=O)C2=O (centres unmarked) [pomalidomide, 4-Amino-2-(2,6-dioxopiperidin-3-yl)isoindole-1,3-dione]
TGImax (OPM-2 xenografts; [5]): 34%

B1: Elotuzumab: monoclonal humanized IgG1 anti-CS1 antibody disclosed as HuLuc63 in U.S. Pat. No. 7,709,610 (antibody, V domains shown)
VH: EVQLVESGGGLVQPGGSLRLSCAASGFDFSRYWMSWVRQAPGKGLEWIGEINPDSSTINYAPSLKDKFIISRDNAKNSLYLQMNSLRAEDTAVYYCARPDGNYWYFDVWGQGTLVTVSS
VL: DIQMTQSPSSLSASVGDRVTITCKASQDVGIAVAWYQQKPGKVPKLLIYWASTRHTGVPDRFSGSGSGTDFTLTISSLQPEDVATYYCQQYSSYPYTFGQGTKVEIKR
Relative reduction in the risk of disease progression or death [1]: 30%

B2: Hu27A12: humanized anti-CS1 antibody, VH SEQ ID NO: 24, VL SEQ ID NO: 26 (antibody, V domains shown)
VH: EVQLVESGGGLVQPGGSLRLSCAASGFTFSDYYMAWVRQAPGKGLEWVAEINYDGSSTYYVDSVKGRFTISRDNAKNSLYLQMNSLRAEDTAVYYCARDRGFYFDYWGQGTTVTVSS
VL: DVVMTQTPLSLSVTPGQPASISCRSSQSLVHNNGNTYLHWYLQKPGQSPQLLIYKVSNRFSGVPDRFSGSGSGTDFTLKISRVEAEDVGVYFCSQSTHVPPYTFGGGTKVEIK
Competition with AF488-labeled Luc34.3.8 for binding (HuCS1): do not compete with, and bind different epitopes than, Luc34.3.8 | Competition with AF488-labeled PDL241 for binding (human CS1 [2]): do not compete with, and bind different epitopes than, PDL241 | Competition with AF488-labeled elotuzumab for binding (human CS1 [3]): do not compete with, and bind different epitopes than, elotuzumab | Competition with AF488-labeled Hu34C3 for binding (human CS1 [4]): None of the anti-CS1 antibodies tested (including Hu27A12 and Hu31D2) compete with Hu34C3

B3: Hu31D2: humanized anti-CS1 antibody, VH SEQ ID NO: 16, VL SEQ ID NO: 19 (antibody, V domains shown)
VH: EVQLVESGGGLVQPGGSLRLSCAASGFTFSDYYMAWVRQAPGKGLEWVADINYDGGSTYYLDSLKSRFTISRDNAKNSLYLQMNSLRAEDTAVYYCARDRGYYFDYWGQGTLVTVSS
VL: DVVMTQSPLSLPVTPGEPASISCRSSQSLVHSNGNTYLHWYLQKPGQSPQLLIYKVSNRFSGVPDRFSGSGSGTDFTLKISRVEAEDVGVYFCSQSTHVPPFTFGGGTKVEIK
Competition with AF488-labeled Luc34.3.8 for binding (HuCS1): do not compete with, and bind different epitopes than, Luc34.3.8 | Competition with AF488-labeled PDL241 for binding (human CS1 [2]): do not compete with, and bind different epitopes than, PDL241 | Competition with AF488-labeled elotuzumab for binding (human CS1 [3]): do not compete with, and bind different epitopes than, elotuzumab | Competition with AF488-labeled Hu34C3 for binding (human CS1 [4]): None of the anti-CS1 antibodies tested (including Hu27A12 and Hu31D2) compete with Hu34C3
